The data set in a line: label from the status in PepcDB records.

For “MKEKGGDSLKYCYQCGLCDSVCPWNRVRQFSMRKIVRQGTFGLTEIEQEDIWRCSTCGTCPSRCPRGVNQIEAGVAMRRIGAEYDVLEHHHHHH”, the protein production entry is “failed”. Regarding “MKEKVSVPFMLLGILFNVCLIAANLLETKVIQVGSITVTAGLLVFPISYIINDCIAEVWGFKKARLIIWSGFAMNFFVVALGLIAVALPAAPFWEGEQHFDFVFGMAPRIVVASLLAFLVGSFLNAYVMSKMKVASGGRNFSSRAIWSTMVGETADSLIFFPIAFGGLIAWPELLVMMGTQIVLKSLYEVIILPITIRVVKAVKRIDGSDVYDTDISYNVLKVKDI”, the protein production entry was “failed”. On to “MKEKVVIITGGSSGMGKGMATRFAKEGARVVITGRTKEKLEEAKLEIEQFPGQILTVQMDVRNTDDIQKMIEQIDEKFGRIDILINNAAGNFICPAEDLSVNGWNSVINIVLNGTFYCSQAIGKYWIEKGIKGNIINMVATYAWDAGPGVIHSAAAKAGVLAMTKTLAVEWGRKYGIRVNAIAPGPIERTGGADKLWISEEMAKRTIQSVPLGRLGTPEEIAGLAYYLCSDEAAYINGTCMTMDGGQHLHQYPF”, for which the protein production result is reported as “not failed”. As for “MKELAGKNLGVTTRFVLRYVFQNTIHSIWRERNERRHGEKPSRTEKIVKLIDKNIRNRLSTIRVRGEEKYAQGTQMRFASRQYQIDRTFL”, the protein production result is given as “failed”.

As for “MKELIRKLTEAFGPSGREEEVRSIILEELEGHIDGHRIDGLGNLIVWKGSGEKKVILDAHIDEIGVVVTNVDDKGFLTIEPVGGVSPYMLLGKRIRFENGTIGVVGMEGETTEERQENVRKLSFDKLFIDIGANSREEAQKMCPIGSFGVYDSGFVEVSGKYVSKAMDDRIGCAVIVEVFKRIKPAVTLYGVFSVQEEVGLVGASVAGYGVPADEAIAIDVTDSADTPKAIKRHAMRLSGGPALKVKDRASISSKRILENLIEIAEKFDIKYQMEVLTFGGTNAMGYQRTREGIPSATVSIPTRYVHSPSEMIAPDDVEATVDLLIRYLGA”, the protein production result was “not failed”. Regarding “MKESNHLMDTPYSYLIRSIGMKLKTSADARLAELGLNSQQGRMIGYIYENQESGIIQKDLAQFFGRRGASITSMLQGLEKKGYIERRIPENNARQKNIYVLPKGAALVEEFNNIFLEVEESITKGLTKDEQKQLMSILIKVNRSM”, the protein production entry is listed as “not failed”.

“MKESSTLLQNLARSLPRLNMGILLGLALLLFATLYWTLERLFDEQNSNVRLHFAQLMENIQEQELFLKRLAARHSIDALSLDAPHHLNLQAFPPTAGQQSPFATPFSLSLSPQQPAAGELPRVFALGLQLSSFYSAFWSGSQHVAPRTFVFKTFGHFDISHPEGNTAPDIGVADQVLHQQLVKSDGFADHQIHWQQYRPPASEALPTRFLAYINLHEPAPPLDVQGGNDWSVVASLLSLDDLNHLEHTRHWSIYDDFTLIEPSGTALTGDPAPADVLGEGLNFGLQGMIVKVTSQTPQLWTGLYAISYRNYLDYALWAMLSLLALGVGSIACGWAASRWYRNKVVVPAQRAQQCLNESEDFNRVVIDTVPSGLCVVSRDNLQVILQNRQAEQWQGTAQLLSRLAQDRSLIDGGETSLDIDGRYLQVEFVSTRYQRQDVLVCTFNDVTRHVEDARALDRARRSADAANAAKTLFLATMSHEIRTPLYGVLGTLELLGLTRLDSRQSDYLQTIQRSSSTLFQLISDVLDVSRIEAGQMSIDPLEFCPLDMLEDVLHAHAASAQRRGLLFYACIDPNLPDLLLGDAARISQILNNLLSNAIKFTESGRVVLRVRLLELRDQQARIEWQVTDTGIGISAQQQPQLFVPFFQVRDASNEAGAGLGLAICERLCQMMGGQMQVTSEPGLGSSFSLRLTLRCLPGGLPPLLPWPEGSPVYVRAPVPELLKNTCDWLGRLGVPAHPPPPGWSDEPQTGVLIDMLPRDGLASWPGPCVSAVSGGGSGRLPQATSWQVDAHDIRAIAQAAVLAHQGLPLYQAQHRAGRMGQLNLRILVAKHSPINQAIIKEQLQALGCQVTLSANGKQALEHWQPQRFDIVITDVNMPLMNGYELARELRRRDPQLPIIGVTANALREEGIRCLAAGMNTWIVKPMNLQTLRGHLSKLCPTSTATAAPSIPPAAPSRPPPDTAQGDRIQVTEKMRPLFLSTMHEDLRRLAEALDSGAGKIAAARLHSIAGAMGAVQAAPLAKACAELECRLLEGALTADLQAQARQLMQRLSRLLLPLE”: the protein production entry is recorded as “failed”. On to “MKETTIYGRLVMAVKNTAQVVIGGKIITLGGYESEEYFQKVASYINNKIAELSEMPGYTRQPVETKHTLLSLNVTDDYFKAKKQAEIFEQDLQQKDQEMYELKHELIALRMKIEETEKNAQEAQQQKELLEGKVKELNDEIDKLLK”, for which the protein production entry is “not failed”.

Source of the values: a protein production outcome set (Wang et al. 2014).
